Reference: article PMC2532734

Columns and labels:
Assay in all cases: NMR 15N-HSQC titration
KSRP KH3 [1] = target: T1, KSRP KH3 (UniProt Q92945 323-418)
T1 sequence: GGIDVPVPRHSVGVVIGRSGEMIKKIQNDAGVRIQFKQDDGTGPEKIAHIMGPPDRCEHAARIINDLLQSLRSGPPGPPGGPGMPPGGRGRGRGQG

KSRP KH3 [2] = target: T1, KSRP KH3; remark: listed apart in the source
KSRP KH4 = target: T2, KSRP KH4 (UniProt Q92945 423-525)
T2 sequence: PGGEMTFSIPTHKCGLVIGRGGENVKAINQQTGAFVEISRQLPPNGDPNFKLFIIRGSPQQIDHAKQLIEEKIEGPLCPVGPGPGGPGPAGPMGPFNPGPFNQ

KSRP KH2 = target: T3, KSRP KH2 (UniProt Q92945 233-305)
T3 sequence: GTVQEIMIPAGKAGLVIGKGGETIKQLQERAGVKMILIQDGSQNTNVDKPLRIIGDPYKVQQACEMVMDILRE

KSRP KH1 = target: T4, KSRP KH1 (UniProt Q92945 130-218)
T4 sequence: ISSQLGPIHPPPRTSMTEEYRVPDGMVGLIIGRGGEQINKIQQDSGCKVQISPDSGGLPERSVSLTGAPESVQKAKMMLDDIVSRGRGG

KSRP KH3 [3] = target: T1, KSRP KH3; remark: listed apart in the source

UAUUAU (ssRNA)
binding signal (KSRP KH3 [1]): ~100 fold weaker than UGGGU

UAGUAU (ssRNA)
Kd (KSRP KH3 [2]): 26 ± 5 µM

UAGGUU (ssRNA) [UAGGUU (UAGGUA in Fig 4b legend)]
Kd (KSRP KH3 [2]): 6 ± 2 µM

UCCCC (ssRNA) [uCCCC]
binding result (KSRP KH4): no binding
binding result (KSRP KH2): no binding
binding result (KSRP KH1): no binding
binding result (KSRP KH3 [3]): no binding
